From patent US20140271651A1

Key:
[1] = molecular target: GP73-hFc (human GP73 amino acids 63 to 400 fused at the C-terminus to human IgG1 Fc) (human); assay: sandwich EIA on GP73-hFc, coated NC, second antibody 1B-3246-Bt
[2] = molecular target: GP73-hFc (human GP73 amino acids 63 to 400 fused at the C-terminus to human IgG1 Fc) (human); assay: sandwich EIA on GP73-hFc, coated NC, second antibody 1B-4971-Bt
[3] = molecular target: GP73-hFc (human GP73 amino acids 63 to 400 fused at the C-terminus to human IgG1 Fc) (human); assay: sandwich EIA on GP73-hFc, coated NC, second antibody 1B-3440-Bt
[4] = molecular target: GP73-hFc (human GP73 amino acids 63 to 400 fused at the C-terminus to human IgG1 Fc) (human); assay: sandwich EIA on GP73-hFc, coated NC, second antibody 1B-4863-Bt
[5] = molecular target: GP73-hFc (human GP73 amino acids 63 to 400 fused at the C-terminus to human IgG1 Fc) (human); assay: sandwich EIA on GP73-hFc, coated NC, second antibody NC-Bt
[6] = molecular target: GP73-hFc (human GP73 amino acids 63 to 400 fused at the C-terminus to human IgG1 Fc) (human); assay: sandwich EIA on GP73-hFc, coated 1A-4246, second antibody NC-Bt
[7] = molecular target: GP73-hFc (human GP73 amino acids 63 to 400 fused at the C-terminus to human IgG1 Fc) (human); assay: sandwich EIA on GP73-hFc, coated 1B-3246, second antibody NC-Bt
[8] = molecular target: GP73-hFc (human GP73 amino acids 63 to 400 fused at the C-terminus to human IgG1 Fc) (human); assay: sandwich EIA on GP73-hFc, coated 1A-3187, second antibody NC-Bt
[9] = molecular target: GP73-hFc (human GP73 amino acids 63 to 400 fused at the C-terminus to human IgG1 Fc) (human); assay: sandwich EIA on GP73-hFc, coated 1B-4971, second antibody NC-Bt
[10] = molecular target: GP73-hFc (human GP73 amino acids 63 to 400 fused at the C-terminus to human IgG1 Fc) (human); assay: sandwich EIA on GP73-hFc, coated NC, second antibody 1A-4246-Bt
[11] = molecular target: GP73-hFc (human GP73 amino acids 63 to 400 fused at the C-terminus to human IgG1 Fc) (human); assay: sandwich EIA on GP73-hFc, coated 1B-4863, second antibody NC-Bt
[12] = molecular target: GP73-hFc (human GP73 amino acids 63 to 400 fused at the C-terminus to human IgG1 Fc) (human); assay: sandwich EIA on GP73-hFc, coated 1B-3440, second antibody NC-Bt
[13] = molecular target: GP73-hFc (human GP73 amino acids 63 to 400 fused at the C-terminus to human IgG1 Fc) (human); assay: sandwich EIA on GP73-hFc, coated NC, second antibody 1A-3187-Bt

Chain of GP73-hFc (human GP73 amino acids 63 to 400 fused at the C-terminus to human IgG1 Fc) (human) (chain, as listed by the source limits assumed): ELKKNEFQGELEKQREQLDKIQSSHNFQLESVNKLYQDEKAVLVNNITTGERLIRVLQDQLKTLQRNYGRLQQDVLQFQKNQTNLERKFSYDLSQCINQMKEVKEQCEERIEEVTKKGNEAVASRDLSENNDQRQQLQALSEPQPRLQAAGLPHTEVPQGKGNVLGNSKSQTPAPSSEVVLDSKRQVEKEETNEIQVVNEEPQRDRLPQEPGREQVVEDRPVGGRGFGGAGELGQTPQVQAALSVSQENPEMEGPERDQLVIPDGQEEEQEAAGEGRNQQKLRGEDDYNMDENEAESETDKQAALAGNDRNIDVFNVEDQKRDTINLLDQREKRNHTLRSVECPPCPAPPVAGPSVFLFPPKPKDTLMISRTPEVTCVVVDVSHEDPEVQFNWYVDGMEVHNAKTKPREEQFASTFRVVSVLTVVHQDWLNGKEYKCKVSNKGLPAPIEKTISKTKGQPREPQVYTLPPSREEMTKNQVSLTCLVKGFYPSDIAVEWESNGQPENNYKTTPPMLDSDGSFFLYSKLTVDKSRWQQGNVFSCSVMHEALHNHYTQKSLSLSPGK

Q: Which results are given for negative control monoclonal antibody?
A: sandwich assay signal (A492) [1]: 0.05 A492; sandwich assay signal (A492) [2]: 0.06 A492; sandwich assay signal (A492) [3]: 0.05 A492; sandwich assay signal (A492) [4]: 0.05 A492; sandwich assay signal (A492) [5]: 0.06 A492; sandwich assay signal (A492) [6]: 0.08 A492; sandwich assay signal (A492) [7]: 0.06 A492; sandwich assay signal (A492) [8]: 0.06 A492; sandwich assay signal (A492) [9]: 0.06 A492; sandwich assay signal (A492) [10]: 0.05 A492; sandwich assay signal (A492) [11]: 0.06 A492; sandwich assay signal (A492) [12]: 3.07 A492; sandwich assay signal (A492) [13]: 0.09 A492
